Test results reported in PMC5737834.
Where “and” joins values, the source holds several entries; their conditions need not be identical. Equal entries are not always repeated.

Target: Recombinant human SP-A1 (SP-A1^hyp) (human) (UniProt Q8IWL2)
Experiment: native gel or EMSA + AUC

stoichiometry N: 3 and 6
Substance: Recombinant human SP-A1 (SP-A1^hyp) (from UniProt Q8IWL2 21-248) (natural protein)
